In general, Kd refers to a measure of binding affinity in units of concentration. For orientation: koff means the first-order rate constant of dissociation. For orientation: kon means the rate constant with which the complex forms.

Values joined by “and” are separate entries in the source; they are usually repeats but may differ in a detail not shown here. Identical values can stand only once.

Consider 22 molecules from patent publication US20150361176A1 (GlaxoSmithKline, published 2015).

B1: DOM23h-271-101 (VHH)
VHH: EVQLLESGGGLVQPGGSLRLSCAASGFTFTEYRMWWVRQAPGKGLEWVSAIEPIGNRTYYADSVKGRFTISRDNSKNTLYLQMNSLRAEDTAVYYCAKQIPGRKWTANGRKDYWGQGTLVTVSS
notes: human VH dAb from phage display maturation of DOM23h-271-7; not shown: C-terminal FLAG tag from vector pDOM10
B2: DOM23h-271-114 (VHH)
VHH: EVQLLESGGGLVQPGGSLRLSCAASGFTFTEYRMWWVRQAPGKGLEWVSAIEPIGNRTYYADSVKGRFTISRDNSKNTLYLQMNSLRAEDTAVYYCAKQIPGRKGTANSRFDYWGQGTLVTVSS
notes: as for B1
B3: DOM23h-271-102 (VHH)
VHH: EVQLLESGGGLVQPGGSLRLSCAASGSTFTEYRMWWVRQAPGKGLEWVSAIEPIGHRTYYADSVKGRFTISRDNSKNTLYLQMNSLRAEDTAVYYCAKQIPGRKWTANSRFDYWGQGTLVTVSS
notes: as for B1
B4: DOM23h-271-105 (VHH)
VHH: EVQLLESGGGLVQPGGSLRLSCAASGFTFTEYRMWWVRQAPGKGLEWVSAIEPIGNRTYYADSVKGRFTISRDNSKNTLYLQMNSLRAEDTAVYYCAKQIPGQRWTGNSRFDYWGQGTLVTVSS
notes: as for B1
B5: DOM23h-271-106 (VHH)
VHH: EVQLLESGGGLVQPGGSLRLSCAASGFTFTEYRMWWVRQAPGKGLEWVSAIEPIGNRTYYADSVKGRFTISRDNSKNTLYLQMNSLRAEDTAVYYCAKQFPGRKWTANSRSDYWGQGTLVTVSS
notes: human VH dAb from phage display maturation of DOM23h-271-7; also called 271-106a; 271-106b; not shown: C-terminal FLAG tag from vector pDOM10
B6: DOM23h-439-25 (VHH)
VHH: EVQLLESGGGLVQPGGSLRLSCAASGFTFGTEQMWWVRQAPGKGLEFVSRIDSPGGRTYYADSVKGRFTISRDNSKNTLYLQMNSLRAEDTAVYYCAKRRPTGVSGTFYDYWGQGTLVTVSS
notes: expressed from pC10
B7: DOM23h-840 (VHH, not shown: small tags and cut ends)
VHH: EVQLLESGGGLVQPGGSLRLSCAASGFTFGDGRMWWVRQAPGKGLEWVSAIEGAGSDTYYADSVKGRFTISRDNSKNTLYLQMNSLRAEDTAVYYCAKQASRNSPFDYWGQGTLVTVSS
B8: DOM23h-803 (VHH, not shown: small tags and cut ends)
VHH: EVQLLESGGGLVQPGGSLRLSCAASGFTFSAGRMWWVRQAPGKGLEWVSAINRDGTRTYYADSVKGRFTISRDNSKNTLYLQMNSLRAEDTAVYYCAKHDDGHGNFDYWGQGTLVTVSS
B9: DOM23h-842 (VHH, not shown: small tags and cut ends)
VHH: EVQLLESGGGLVQPGGSLRLSCAASGFTFDDSEMAWARQAPGKGLEWVSLIRRNGNATYYADSVKGRFTISRDNSKNTLYLQMNSLRAEDTAVYYCAKVTKDRSVLFDYWGQGTLVTVSS
B10: DOM23h-830 (VHH, not shown: small tags and cut ends)
VHH: EVQLLESGGGLVQPGGFLRLSCAASGFTFEGYRMWWVRQAPGKGLEWVSAIDSLGDRTYYADSVKGRFTISRDNSKNTLYLQMNSLRAEDTAVYYCAKQGLTHQSPSTFDYWGQGTLVTVSS
B11: DOM23h-850 (VHH, not shown: small tags and cut ends)
VHH: EVQLLESGGGLVQPGGSLRLSCAASGFTFDAARMWWARQAPGKGLEWVSAIADIGNTTYYADSVKGRFTISRDNSKNTLYLQMNSLRAEDTAVYYCAKQSGSEDHFDYWGQGTLVTVSS
B12: DOM23h-828 (VHH, not shown: small tags and cut ends)
VHH: EVQLLESGGGLVQPGGSLRLSCAASGFTFMSYRMWWVRQAPGKGLEWVSAISPSGSDTYYADSVKGRFTISRDNSKNTLYLQMNSLRAEDTAVYYCAKQVVEYSRTHKGVFDYWGQGTLVTVSS
B13: DOM23h-854 (VHH, not shown: small tags and cut ends)
VHH: EVQLLESGGGLVQPGGSLRLSCAASGFTFAQDRMWWVRQAPGKGLEWVSAISGSGGSTYYADSVKGRFTISRDNSKNTLYLQMNSLRAEDTAVYYCAKQDLHGTSSLFDYWGQGTLVTVSS
B14: DOM23h-866 (VHH, not shown: small tags and cut ends)
VHH: EVQLLESGGGLVQPGGSLRLSCAASGFTFSNYWMRWARQAPGKGLEWVSYITPKGDHTYYADSVKGRFTISRDNSKNTLYLQMNSLRAEDTAVYYCAESLHNERVKHFDYWGQGTLVTVSS
B15: DOM23h-874 (VHH, not shown: small tags and cut ends)
VHH: EVQLLESGGGLVQPGGSLRLSCAASGFTFTSYRMWWVRQAPGKGLEWVSVIDSTGSATYYADSVKGRFTISRDNSKNTLYLQMNSLRAEDTAVYYCAKQQAGSAMGEFDYWGQGTLVTVSS
B16: DOM23h-813 (VHH, not shown: small tags and cut ends)
VHH: EVQLLESGGGLVQPGGSLRLSCAASGSTFTDDRMWWVRQAPGKGLEWVSAIQPDGHTTYYADSVKGRFTISRDNSKNTLYLQMNSLRAEDTAVYYCAEQDVKGSSSFDYWGQGTLVTVSS
B17: DOM23h-883 (VHH, not shown: small tags and cut ends)
VHH: EVQLLESGGGLVQPGGSLRLSCAASGFTFVNYRMWWVRQAPGKGLEWVSAISGSGDKTYYADSVKGRFTISRDNSKNTLYLQMNSLRAEDTAVYYCAKHGLSFDYWGQGTLVTVSS
B18: DOM23h-903 (VHH, not shown: small tags and cut ends)
VHH: EVQLLESGGGLVQPGGSLRLSCAASGFTFNDMRMWWVRQAPGKGLEWVSVINADGNRTYYADSVKGRFTISRDNSKNTLYLQMNSLRAEDTAVYYCAKDGLPFDYWGQGTLVTVSS
B19: DOM23h-831 (VHH, not shown: small tags and cut ends)
VHH: EVQLLESGGGLVQPGGSLRLSCAASGFTFEAYKMTWVRQAPGKGLEWVSYITPSGGQTYYADSVKGRFTISRDNSKNTLYLQMNSLRAEDTAVYYCAKYGSSFDYWGQGTLVTVSS
B20: DOM23h-815 (VHH, not shown: small tags and cut ends)
VHH: EVQLLESGGGLVQPGGSLRLSCAASGFTFAEDRMWWVRQAPGKGLEWVSAIDPQGQHTYYADSVKGRFTISRDNSKNTLYLQMNSLRAEDTAVYYCAKQSTGSATSDYWGQGTLVTVSS
B21: DOM23h-802 (VHH, not shown: small tags and cut ends)
VHH: EVQLLESGGGLVQPGGSLRLSCAASGFTFSEGTMWWVRQAPGKGLEWVSAILAAGSNTYYADSVKGRFTISRDNSKNTLYLQMNSLRAEDTAVYYCAKKRQERDGFDYWGQGTLVTVSS
B22: DOM23h-865 (VHH, not shown: small tags and cut ends)
VHH: EVQLLESGGGLVQPGGSLRLSCAASGFTFRSYEMTWVRQAPGKGLEWVSKIDPSGRFTYYADSVKGRFTISRDNSKNTLYLQMNSLRAEDTAVYYCAKGRTDLQLFDYWGQGTLVTVSS

T3 sequence (P37173 23-567): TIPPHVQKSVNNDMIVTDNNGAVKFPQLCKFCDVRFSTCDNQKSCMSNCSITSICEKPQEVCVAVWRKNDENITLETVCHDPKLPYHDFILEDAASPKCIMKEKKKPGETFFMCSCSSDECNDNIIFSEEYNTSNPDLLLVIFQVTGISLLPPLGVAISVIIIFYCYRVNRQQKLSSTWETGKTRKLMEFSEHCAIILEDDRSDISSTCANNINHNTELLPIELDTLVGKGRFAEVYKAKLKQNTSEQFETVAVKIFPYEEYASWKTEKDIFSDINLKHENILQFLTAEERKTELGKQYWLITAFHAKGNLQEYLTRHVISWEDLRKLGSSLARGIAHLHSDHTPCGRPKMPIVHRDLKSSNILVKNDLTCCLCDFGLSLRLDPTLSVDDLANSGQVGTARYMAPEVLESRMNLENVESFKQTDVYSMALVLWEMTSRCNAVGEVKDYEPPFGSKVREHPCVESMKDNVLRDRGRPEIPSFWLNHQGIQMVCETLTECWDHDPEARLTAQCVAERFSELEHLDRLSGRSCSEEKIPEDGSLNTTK

For one test, the target named is T1, recombinant human TGF-β RII/Fc chimera protein (human, UniProt P37173 24-159).
T1 construct: range 24-159; Made in HEK-F cells; Biotinylated where it was put on SA chips, otherwise captured by anti-human IgG; also called human TGFbRII/Fc; hRII-Fc; not shown: Fc region of human IgG1
T1 sequence (P37173 24-159 limits assumed, change not shown): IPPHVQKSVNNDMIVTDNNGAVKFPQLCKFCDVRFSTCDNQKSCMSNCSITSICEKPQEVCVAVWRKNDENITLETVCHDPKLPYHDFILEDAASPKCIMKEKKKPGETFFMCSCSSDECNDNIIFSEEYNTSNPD
The experiment in a line: SPR Biacore T100, human TGFbRII-FC, 1:1 model. Here is the method: Triplet or doped libraries in separate CDR1, CDR2 and CDR3 pools were subjected to rounds of phage selection as described above against either biotinylated human TGF-β RII/Fc antigen over 4 rounds in concentrations of 10 nM, 1 nM, 100 pM and 20 pM respectively, or two rounds of selection using 20 pM followed by 2 pM antigen. Inserts from phage selections were cloned into the pDOM10 expression vector and supernatants with off rates improved over parent were selected for further study. Domain antibodies were expressed and purified their affinity and bioactivity against human TGF-β RII/Fc antigen tested on the BIACORE™ T100 and in the Cell sensor assay described above (data not shown).
BIACORE™ analysis was carried out using a capture surface on a CM4 chip. Anti-human IgG was used as the capturing agent and coupled to a CM4 biosensor chip by primary amine coupling. The Antigen molecule fused to the human Fc was captured on this immobilised surface to a level from 250 to 300 resonance units and defined concentrations of Domain antibodies diluted in running buffer were passed over this captured surface. An injection of buffer over the captured antigen surface was used for double referencing. […] All runs were carried out at 25° C. using HBS-EP buffer as running buffer. Data were generated using the BIACORE™ T100 and fitted to the 1:1 binding model inherent to the software.
For the molecule B1, the Kd was 5.4 nM, the koff came to 0.0201 s⁻¹ and the kon was 3.73e+06 M⁻¹ s⁻¹.

With B2, the Kd stood at 6.8 nM, the dissociation rate constant (koff) is 0.0708 s⁻¹ and the kon turned out to be 1.04e+07 M⁻¹ s⁻¹.

For B3, the Kd turned out to be 1.64 nM, the koff came out at 0.0153 s⁻¹ and the kon was determined as 9.35e+06 M⁻¹ s⁻¹.

Consider B4, for which the Kd was 2.27 nM and 2.6 nM; the koff is 0.00747 s⁻¹ and 0.00798 s⁻¹; the on-rate constant (kon) was 3.29e+06 M⁻¹ s⁻¹ and 3.07e+06 M⁻¹ s⁻¹.

Consider B5, for which the Kd is 3.16 nM and 2.88 nM; the koff was 0.0233 s⁻¹ and 0.0195 s⁻¹; the kon is 7.39e+06 M⁻¹ s⁻¹ and 6.77e+06 M⁻¹ s⁻¹.

The target of another test is T1, recombinant human TGF-β RII/Fc chimera …. As to the kind of experiment: SPR Biacore T200, receptor-Fc captured by anti-human IgG, dAb as analyte, 1:1 model. Here is the method:
(§1) Anti-human IgG was immobilised on a Biacore CM4 chip by primary amine coupling according to the manufacturer's instructions. Human TGF-β RII/Fc, cynomolgus TGF-β RII/Fc or human Fc fragment were captured on this surface. Domain antibodies were passed over the two captured receptors at 3 concentrations of 100, 10 and 1 nM (DOM23h-439 dAbs) or 100, 25 and 6.25 nM (DOM23h-271 dAbs). Only the 100 nM concentration of each dab was passed over human Fc fragment to confirm specificity of binding to the extracellular TGF-β RII domain. An injection of buffer over the captured antigen surface was used for double referencing. […] All runs were carried out at 25° C. using HBS-EP buffer as running buffer. Data were generated using the BIACORE™ T200 and fitted to the 1:1 binding model inherent to the software. […] The DOM23h-271 dAbs and the DOM23h-439 lineages were run in separate experiments.
As to B6, the Kd worked out at 0.0817 nM, the koff came to 0.000634 s⁻¹ and the kon worked out at 7.77e+06 M⁻¹ s⁻¹.

Another test deals with T2, cynomolgus TGF-β RII/Fc (cynomolgus).
T2 construct: extracellular domain; also called Cyno TGFBRII; Cyno TGFbRII
Described as above. Here is the method: as §1
On to B6, for which the Kd worked out at 0.304 nM, the koff worked out at 0.00273 s⁻¹ and the kon was 8.99e+06 M⁻¹ s⁻¹.

The next test concerns the target T3, human TGF-βRII on cells (SBE-bla HEK 293T cells; A549 cells) (human, UniProt P37173 23-567). The experiment in a line: cell-based or functional assay.
For B6, the “IC50 nM, Mean (SBE-bla HEK 293T cell sensor assay)” value was determined as 4 nM.

The target of the next test is T3, human TGF-βRII on cells (SBE-bla HEK …). As to the kind of experiment: cell-based or functional assay. The source holds these as a separate data set.
Turning to B7, the “IC50 nM, Mean (SBE-bla HEK 293T cell sensor assay, h2)” value turned out to be 2920 nM.

B8: the “IC50 nM, Mean (SBE-bla HEK 293T cell sensor assay, h2)” value is more than 11600 nM.

Consider B9, for which the “IC50 nM, Mean (SBE-bla HEK 293T cell sensor assay, h2)” value worked out at 2040 nM.

On to B10, for which the “IC50 nM, Mean (SBE-bla HEK 293T cell sensor assay, h2)” value was 6300 nM.

For the molecule B11, the “IC50 nM, Mean (SBE-bla HEK 293T cell sensor assay, h2)” value stood at 5350 nM.

Consider B12, for which the “IC50 nM, Mean (SBE-bla HEK 293T cell sensor assay, h2)” value turned out to be 9900 nM.

For the molecule B13, the “IC50 nM, Mean (SBE-bla HEK 293T cell sensor assay, h2)” value was more than 9550 nM.

In the case of B14, the “IC50 nM, Mean (SBE-bla HEK 293T cell sensor assay, h2)” value was more than 1760 nM.

B15: the “IC50 nM, Mean (SBE-bla HEK 293T cell sensor assay, h2)” value was more than 925 nM.

As for B16, the “IC50 nM, Mean (SBE-bla HEK 293T cell sensor assay, h2)” value was more than 9330 nM.

Consider B17, for which the “IC50 nM, Mean (SBE-bla HEK 293T cell sensor assay, h2)” value is 10100 nM.

On to B18, for which the “IC50 nM, Mean (SBE-bla HEK 293T cell sensor assay, h2)” value was 1050 nM.

As to B19, the “IC50 nM, Mean (SBE-bla HEK 293T cell sensor assay, h2)” value was more than 3130 nM.

For B20, the “IC50 nM, Mean (SBE-bla HEK 293T cell sensor assay, h2)” value is 7120 nM.

With B21, the “IC50 nM, Mean (SBE-bla HEK 293T cell sensor assay, h2)” value was more than 11100 nM.

On to B22, for which the “IC50 nM, Mean (SBE-bla HEK 293T cell sensor assay, h2)” value is 5560 nM.
